Reference: paper PMC6019379, “RecA-like domain 2 of DNA-dependent ATPase A domain, a SWI2/SNF2 protein, mediates conformational integrity and ATP hydrolysis” (Bioscience Reports, 2018)

What was measured:
Conditions in all cases: protein: recombinant; tags: His (Ni-NTA, pET-14b); hairpin
ADAAD H594A = target: T1, ADAAD H594A (Bos taurus (bovine), UniProt Q9TTA5 221-940, H814A); experiment: intrinsic tryptophan fluorescence titration; no ATP; Fluorescence titration (ex 295 nm, em 340 nm), one-site saturation fit; buffer, salt, pH and temperature not given in the material. Wild-type ADAAD Kd values are cited from ref 24 and not listed
T1 sequence: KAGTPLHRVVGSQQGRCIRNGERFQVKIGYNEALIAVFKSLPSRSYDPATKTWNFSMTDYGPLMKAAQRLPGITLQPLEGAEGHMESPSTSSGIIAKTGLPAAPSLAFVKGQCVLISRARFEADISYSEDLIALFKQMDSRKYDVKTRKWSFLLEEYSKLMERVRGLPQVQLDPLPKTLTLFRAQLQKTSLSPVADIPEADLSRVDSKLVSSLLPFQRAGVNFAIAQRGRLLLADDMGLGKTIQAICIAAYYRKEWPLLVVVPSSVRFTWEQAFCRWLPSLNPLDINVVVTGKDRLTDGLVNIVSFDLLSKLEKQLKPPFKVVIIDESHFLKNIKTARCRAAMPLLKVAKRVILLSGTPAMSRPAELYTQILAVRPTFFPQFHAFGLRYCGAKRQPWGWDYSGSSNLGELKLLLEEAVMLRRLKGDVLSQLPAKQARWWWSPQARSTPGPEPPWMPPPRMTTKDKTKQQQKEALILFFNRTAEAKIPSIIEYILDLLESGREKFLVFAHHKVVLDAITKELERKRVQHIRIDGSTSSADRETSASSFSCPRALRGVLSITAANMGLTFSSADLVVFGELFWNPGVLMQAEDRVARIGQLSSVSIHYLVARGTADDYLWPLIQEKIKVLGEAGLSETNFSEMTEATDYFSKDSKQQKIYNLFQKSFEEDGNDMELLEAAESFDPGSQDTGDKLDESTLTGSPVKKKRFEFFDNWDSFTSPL

ADAAD F507A = target: T2, ADAAD F507A (Bos taurus (bovine), UniProt Q9TTA5 221-940, F727A); experiment: as above
T2 sequence: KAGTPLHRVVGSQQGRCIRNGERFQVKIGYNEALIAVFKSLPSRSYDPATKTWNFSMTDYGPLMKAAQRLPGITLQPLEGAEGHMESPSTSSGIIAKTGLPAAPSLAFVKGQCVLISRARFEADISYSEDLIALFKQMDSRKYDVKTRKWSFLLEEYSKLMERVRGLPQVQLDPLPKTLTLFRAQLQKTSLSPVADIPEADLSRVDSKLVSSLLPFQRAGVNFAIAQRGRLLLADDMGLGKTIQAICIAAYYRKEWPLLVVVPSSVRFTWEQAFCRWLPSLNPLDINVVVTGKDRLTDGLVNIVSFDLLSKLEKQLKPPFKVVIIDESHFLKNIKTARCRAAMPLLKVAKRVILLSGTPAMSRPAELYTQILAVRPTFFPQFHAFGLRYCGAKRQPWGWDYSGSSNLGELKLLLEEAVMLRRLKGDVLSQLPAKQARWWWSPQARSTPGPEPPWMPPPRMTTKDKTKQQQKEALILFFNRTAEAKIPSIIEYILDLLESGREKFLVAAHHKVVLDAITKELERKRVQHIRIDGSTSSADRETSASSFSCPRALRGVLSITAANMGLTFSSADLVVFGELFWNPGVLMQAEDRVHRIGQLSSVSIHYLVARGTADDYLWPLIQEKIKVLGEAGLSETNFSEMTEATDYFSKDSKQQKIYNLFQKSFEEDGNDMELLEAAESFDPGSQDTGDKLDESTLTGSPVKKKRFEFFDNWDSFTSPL

ADAAD T560A = target: T3, ADAAD T560A (Bos taurus (bovine), UniProt Q9TTA5 221-940, T780A); experiment: intrinsic tryptophan fluorescence titration; saturating ATP; Fluorescence titration (ex 295 nm, em 340 nm), one-site saturation fit; buffer, salt, pH and temperature not given in the material. Wild-type ADAAD Kd values are cited from ref 24 and not listed
T3 sequence: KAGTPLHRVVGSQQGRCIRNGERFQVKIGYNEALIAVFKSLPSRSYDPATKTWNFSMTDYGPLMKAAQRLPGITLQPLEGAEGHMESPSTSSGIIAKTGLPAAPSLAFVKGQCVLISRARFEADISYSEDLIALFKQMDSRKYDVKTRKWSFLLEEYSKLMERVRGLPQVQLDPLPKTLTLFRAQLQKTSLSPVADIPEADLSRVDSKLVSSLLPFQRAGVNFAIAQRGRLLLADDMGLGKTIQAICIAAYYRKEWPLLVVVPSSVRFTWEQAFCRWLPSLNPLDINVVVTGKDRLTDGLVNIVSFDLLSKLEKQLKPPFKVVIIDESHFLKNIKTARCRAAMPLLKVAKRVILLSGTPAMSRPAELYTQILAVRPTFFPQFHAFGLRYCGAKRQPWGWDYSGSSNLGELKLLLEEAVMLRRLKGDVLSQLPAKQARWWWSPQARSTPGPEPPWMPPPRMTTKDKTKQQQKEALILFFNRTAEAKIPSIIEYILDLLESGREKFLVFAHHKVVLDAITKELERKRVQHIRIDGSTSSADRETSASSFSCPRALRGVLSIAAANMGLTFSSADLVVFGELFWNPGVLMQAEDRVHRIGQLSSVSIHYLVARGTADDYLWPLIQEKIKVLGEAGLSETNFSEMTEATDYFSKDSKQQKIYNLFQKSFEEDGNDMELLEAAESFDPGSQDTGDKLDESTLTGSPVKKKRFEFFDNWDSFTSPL

## GCGCAATTGCGCTCGACGATTTTTTAGCGCAATTGCGC (structured_DNA) [slDNA (stem-loop DNA)]
ADAAD H594A
  Kd: 10.9 ± 2.6 nM
ADAAD F507A
  Kd: 19 ± 4.5 nM
ADAAD T560A
  Kd: 1.4 ± 0.3 nM
